test system: Saccharomyces cerevisiae; experiment: transcriptional activation domain activity (GFP:mCherry ratio, weighted mean of sorted bins, harmonized to initial dataset scale) (arbitrary fluorescence ratio units); higher = stronger transcriptional activation; details: beta-estradiol 1 µM; induction time 4 h
How it was run: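 Activation activity, the read-weighted mean of bin median fluorescence averaged across barcodes, was linearly mapped onto the scale of the initial dataset. It was measured for barcoded protein tiles fused to an estradiol-inducible synthetic transcription factor at URA3 in GFP-reporter yeast diploids. Cultures diluted 1:5 into SC with 1 uM beta-estradiol were held 4 hours at 30 °C, sorted into 8 bins by GFP:mCherry ratio, and barcode-sequenced, and tiles under 50 reads were discarded.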

| Sequence | transcriptional activation domain activity |
| --- | --- |
| SRSRSRRRKSSRRRRRDRSEDAESDDHRARRRHKSRKHSSRAGDDEDGKGRSR | 26100 |
| SRTTSLGVWFLVIQMIWYGLFGALYIWFFCQDWYLFDVHLVFDYLMRFILCLM | 40700 |
| SRVMRHFSAVEAGCFLWIWILVRIEGGMLLVNLYLDTTRITSTILNLYTACTG | 78500 |
| SRVSLTVFRFSYVWLSLIFAIPLLCAVLIELYFLMPLHAWMGPSEPHVVHLIQ | 46800 |
| SRVVYRDGRRHHYCVTSFDVLSSGILYIICGALDNIWLVTIERVVLSIMACRV | 81500 |
| SRWFLVLFLLPYPRASPFFLVLYLFSLILHSRPCLYCIVLLTVLFTSSCYWAP | 53600 |
| SSAAAGSSGNASRAAMDVDGEVDADADENRRRSTRASAGRKKAGSAVKKAGTG | < 6570 |
| SSAASAGGEGEGKDGKRKKDGQEEEEEEDKGSKKVKKNDGGAKQTKEGAKTSD | < 6570 |
| SSACASRSSPSSSCGSPSTSCAGAAARASPPRRCSARPCPRRRRAASPTASTS | 10100 |
| SSAKDIEGDGDGADVIRNNRLAKRSTAGVKVKKHVAQIIKMRKVTPRSIAYIA | 40000 |
| SSATASAADAATTDAASGSLEARKKKDDKKKGDKKKGKKGDKKGGKKAASTTA | 12500 |
| SSATDSNPNTNLEDSLFFDHDLLSSSITNTNNGQGSNNGRQASKDDTLNLLDT | 37900 |
| SSCAPIPMVDFDINESNMVMGNYFDDFASFMDNVPIPNSVFSPSYQPLFAFLP | 114000 |
| SSDEEEEPRPKGKGKGKAAVVKAKPKPVAEKGNNAGGKRKRDADSEADGGAAK | 44000 |
| SSDYSIAQFRFLLKLLLVHGRWNYVRICKYILGTFYKEFMFYLTQLIYQRNTM | 39600 |
| SSEEEDEEDEEEEEEEEEEEAPPKKRAKTKGTVLYCYIFSPFFVPATVNPAID | 56700 |
| SSEESSSEDDDGDVKMADAKPAANGIYIYLSSINRLINPLQFQVSVKPTRMSL | 47200 |
| SSEGGEENKAEEAELEKADKPKEETTEEKKSEEEKPEEKKPEEKKPEETKAEN | 18500 |
| SSEYEIGRPSEEEVTMTRMLDKVLRRSDAVDKESLCILAGQRVWHLRLTLHCL | 45500 |
| SSFFFFSFFPGPFLLLYLWICLYPFFLFLGHPFSLGFFLLNYLLFSTATLVAG | 36200 |
| SSFVLCLLQCLDVPSLVELTVRRVNSRLRLLLSCKVLLAGLVRLAIHGDIEMA | 52200 |

| Sequence | transcriptional activation domain activity |
| --- | --- |
| SSGDERQKHQTKSSSKKSREKSKKAAGRNKAEEAKTNDGRKSTRKPSKRTRST | 24900 |
| SSGGDSGGDDTTTTTKKSRPRHHHLAHHHLHHLHHLHYLHHFHHHTHQHDDHL | 22900 |
| SSGGEKGGAKETEKTPKWYVDGIRYGRATDMKLVKHLISLRVHLSTASLVWIE | 86800 |
| SSGGGSTSESESESESEIEEDESKGEREGEGEKEKKKKKKKKGEEKAQHARRD | 31700 |
| SSHCLLENDMFVFFANCSVNQLAMGEDMHHILRLCYSAELIKVLLTYLGRSTF | 56400 |
| SSIRQMLKISLVRPLHMLLTEPVLFLFAVSLHPFRPRIYLMLEAIPLVFTRLY | 40900 |
| SSIVYLHPPLLHCLFLFPLLLLRLLAILAFSFLYLINLVLGTLGSCFSFFFRD | 34600 |
| SSKHDYKRSRRSKTKDEDDDDDDEDRKRRKRRKEREHSKKKEKEERRSVLTGK | 30300 |
| SSKISCIHHVALKPSSGRYKRVTIIFNIIKAKRHLVTNSLRLMGLLLAIALYI | 53000 |
| SSLMQYTLGATIGFVQSLEVRTQVLHLLVKLFQSLPQPDHFSIAQCYVYLNAP | 57200 |
| SSLSSSSFIKSHPGPDPFQQLSSAEHPNNHSSDDEHSGSQPLPLDSITIGIPP | 53200 |
| SSLTSIESMGSVMDESGEEEEEDVIYEVKRARTHSMEVQQARLVSWEGAGMKL | 42300 |
| SSNFQTIDNENNVKTPGNKLTDFFQQQSAGWIEGNSSNDDFFGWFDMNMEQGF | 133000 |
| SSNGEEQSINNKNDIDDNSAYRRNNFRNSSNSGSHTFQLSDLDLDVDMRMDSA | 41100 |
| SSNGRKSSKRRSRDKDEDEDEDEEDRKRRKRRRERERSKEKEERRSVLTGKKI | 27200 |
| SSPKKKGASKSDSAGRGNTAAAAKGRGKAKANAKGSPKKGGGGSARKRRKTAE | 41100 |
| SSPNTGGGLFGSGGTTSAFGANTTSGFGSTSNTGAFGAKTGAFGATTSAGGGL | 35800 |
| SSPSIQTASSVSTVLVVGSNDKTVKDVGEGLKTKLGVKGGGKGPRWSGKFIGV | 19700 |
| SSPSSQTSSSTSVVLVFGLEEKRVKEAGEQLKSKLGVKGGGKGPRWSGKFVGV | 51600 |
| SSPVVVSKIEDKNTEDKGADVKKTEESKKEEKTEVKQESKPEEKAEAKSEEKK | 29300 |
| SSQPTKKPTPTTTTTTTTTTTTTTTTTTTTTEKPHTTHHTTHTTTTTTTKKAE | 36700 |

| Sequence | transcriptional activation domain activity |
| --- | --- |
| SSQTPVLLWIIHFILPNLCILLYFTLQLIYLLRHHKSKWLIGDLVHSYCFYFI | 81000 |
| SSQVARLHQSWQHSIRVPFALVANYDHPLPWLLQHYVPLYMPALLFRFHILTF | 50100 |
| SSRKEDKSERRHRHRHRSRSRDRDQRHRRHHRSDSRERNQDGDGERRRRHRRS | 26700 |
| SSRRTKKSRRRRRGSSSSSSEAPSRKQRKAAASSSDEEQDRRARRKGKGKGRV | 30800 |
| SSRSRSVSRQPPSPHEEEQEDAEEREAEDGKGGGGEGEREHQSRESSPAPART | 27100 |
| SSRYDPVKSVFLPLDPMPLPRDFFFSFALILFCPSPFYTSLLSLYLISPLLFP | 60800 |
| SSRYIQTSTLTRLLLTYRQWIFVVVYSHLLLLDHSSQIWWRWMNIFFTLVIWS | 62300 |
| SSSAESSKASSSKKVASTKPKSKSAGTKAKPAAKKPAKKAAPKKKKPAKRAAK | 34500 |
| SSSDFVPVNFEADSLPYTPTTLDGLASLTSLEDLFSADDALASFDWSEWPWIY | 156000 |
| SSSEDDGKAGEGSSSSSDSEKARGRKKAKKSKEKGKGKATEGNSSSSSSDDDS | 21100 |
| SSSEDESDEEDEEGLGSDVEIHDQAEPAEDVPAGEVSRRFAVVNLDWDHVRAV | 32200 |
| SSSEEEVEVEVDKKTGVKRKRVKKQKVKKDVHNLVWSVVSQKKVFTDCWLGVL | 91900 |
| SSSEEGEDGKGKDKEKHGFRARAKSFTRRKSDAGSRAPSRTGRKRSDSTATAA | 24500 |
| SSSEEGSDGEEGDGEKDKDAKEKDGKDADGDVDMDADGKPKPKKAKPKKSTKK | 31500 |
| SSSGTPQAKSSSPSSTAASTKAPTSSATKPTSTGSCRKKRSNSTQRRSRTSRM | 45400 |
| SSSKKRKAVEVEEEEEEEEEEEEPVEEPEVEKEKEIVAAPVAKKAKVTAAATS | 29300 |
| SSSKSAADVAAGEGKKTEKAGEKKEGTAAAAEKKKIEEKPAREEKKEEEKVPV | 24300 |
| SSSKSKPIPDAKKRKSSASKPKSASSADRDTKRSGSRPESGKKSSTSSRSSKS | 22900 |
| SSSNQQTRTRDGPKKKKANRACLHCQKAHLTCDDSRPCQRCVRRGMANSCTEG | 29900 |
| SSSNSGGGGGVPEHILARVGYAVVSGLHFLKTKLNVIHRDVKPSNVLCSRAGD | 42900 |
| SSSRRRSQSPAAEASRSRRERSRDRSDAEDEGGSRSGSRRRRRRGSAEPREED | 41600 |

| Sequence | transcriptional activation domain activity |
| --- | --- |
| SSSSASSSSASARGRKTQAARSTKKRKRRDAVSSANKDEDNDSDASNDEDEDE | 27500 |
| SSSSEPIVLPVPVPVKRGRGRPKGAKNKPKLCEEKKQEEEEERERERERERGT | 12200 |
| SSSSKKQNQSADGERKKPKKTDGAEKGESVRRKSDSGGKSVKSEEKTTKGIQK | 28800 |
| SSSSQTSTSASVLLVFGSDERYVKAAGDLLKSRLNVKGGGKGTRWSGKYTGVW | 31200 |
| SSSSRGKGGKEKGKGKVAGEGDGDGEEEQGEQQQQQQTSLVEAVARARDACRL | 27200 |
| SSSSSRVACGQVVKCGSEVVATSNGAYPVQEGDSCSRARRQSTGSVVNRTTRP | 26400 |
| SSSSSSREDGEASDASSSSRDSRRRRRRSTSRDKRPAAESKAATEPAAAKPRN | 30000 |
| SSSSSSSSESGSESDSGSDDGSASGSGDNSSTSSESESESDSGSEVDEKNNKN | 33900 |
| SSSSTPSAFSSATPSSLFGSGASSTAKPFGSAASPSPFGAAKSSPSLFGSGGG | 69900 |
| SSSTVVLAFGTDEKKIKEVGDALKTKLSVKGGGKGPRWSGKFAGVWKEDSAIE | < 6570 |
| SSTDPTVEPDAPGGSEAEEPAKSETKESPAKKKVVEEEEEEEQKKAEPNGSSS | 30700 |
| SSTNPGTESAKPEKPKRAPRQKASSKKADSKPKRTTARSKKAVKLAAEKLLSP | 15600 |
| SSTWFEPLENIISSASSSSIGSPIEDQFISSNNEESALFPTDQFFSNPSSYSH | 84600 |
| SSVVLFVFFLLFLLFSLFFYPTWLLPCLIFLLNDYLLFFLLFFCRVSCSFAPL | 45800 |
| SSWIKWVFLFARYFPLLAGLCGRIIDSIVLYKHPIPIPLNALRIWYICQVLII | 59300 |
| STAARTHGSKRSRDEEDGEGEERAKKRSRSEERVNTTRETRATRATRATSARP | 31100 |
| STACILLILVRYLGLIALVLNIIGFFSHEFTMESCQYYWRFMPIMQCFASWAS | 61800 |
| STALRTWPGLMYLSMYNFRAIKSLVASLMLPNQQARDIIIVLLYSLLRIKSPA | 65100 |
| STARICQMYHWTGNVAIWTHCAILMHPHTIVLWHIWRWDSSWSQASYYFIFWI | 37000 |
| STARKPRKKKEAEKTVDGAEDEITEETQKPKRKASTKRTSRKTTTDKEETTAT | 24200 |

— the supplement of paper PMC12636428
